According to article PMC1636449 (Nucleic Acids Research, 2006):
Substitutions are numbered along the chain they refer to. Numbers in names are those of the source. Values belong to the binder of their own block, whether it stands above or below them.

How the values were obtained:
[1] = target: T1, Bacillus stearothermophilus DnaB helicase (Bacillus stearothermophilus, UniProt Q9X4C9 1-454); assay: SPR
T1 sequence: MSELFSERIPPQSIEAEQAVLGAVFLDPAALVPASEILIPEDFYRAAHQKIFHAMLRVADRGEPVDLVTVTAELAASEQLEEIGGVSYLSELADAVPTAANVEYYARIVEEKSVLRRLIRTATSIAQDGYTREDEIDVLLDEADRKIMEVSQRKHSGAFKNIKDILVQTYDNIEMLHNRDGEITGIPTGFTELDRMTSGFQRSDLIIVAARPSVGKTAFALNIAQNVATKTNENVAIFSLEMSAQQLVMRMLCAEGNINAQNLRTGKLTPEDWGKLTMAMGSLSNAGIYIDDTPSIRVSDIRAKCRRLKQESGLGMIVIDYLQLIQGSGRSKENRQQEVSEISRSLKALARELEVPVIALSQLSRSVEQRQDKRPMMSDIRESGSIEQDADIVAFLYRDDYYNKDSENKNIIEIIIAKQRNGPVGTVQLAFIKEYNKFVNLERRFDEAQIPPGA

[2] = target: T1, Bacillus stearothermophilus DnaB …; assay: SEC

- stoichiometry N [1]: 1 DnaI per stearoDnaB subunit
B1: Bacillus subtilis DnaI (wild type) (natural protein)
chain: MEPIGRSLQGVTGRPDFQKRLEQMKEKVMKDQDVQAFLKENEEVIDQKMIEKSLNKLYEYIEQSKNCSYCSEDENCNNLLEGYHPKLVVNGRSIDIEYYECPVKRKLDQQKKQQSLMKSMYIQQDLLGATFQQVDISDPSRLAMFQHVTDFLKSYNETGKGKGLYLYGKFGVGKTFMLAAIANELAEKEYSSMIVYVPEFVRELKNSLQDQTLEEKLNMVKTTPVLMLDDIGAESMTSWVRDEVIGTVLQHRMSQQLPTFFSSNFSPDELKHHFTYSQRGEKEEVKAARLMERILYLAAPIRLDGENRRHP

- binding result [2]: binds
B2: B. subtilis DnaI C101A mutant (natural protein)
chain: B1 chain with C101A
